B1: GNB5 (parent)
chain: YYPSGDAFASGSDDATCRLYDLRA
B2: CLINT1 (parent)
chain: VVTSAREHIYDLRSLENYHFVDEH

Variants of: B1
Assay: protein stability index of a GFP-peptide fusion (GPS, HEK-293T) (PSI 1-6); higher = more stable
Settings: c terminus: a fixed tail appended
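Note: lentivirally expressed fusions sorted by FACS into six bins by GFP to DsRed ratio, PSI derived from sequencing read proportions per bin multiplied by bin number.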

Protein stability index: each site, then its substitutions
R23: W 2.15; C 2.27; A 2.47; N 2.33; F 2.27
A24: N 2.79; K 2.43; T 2.86; Y 2.22; V 1.78
F8: Y 2.61; V 4.07; A 4.18; S 4.11; C 3.87; W 2.62; Q 3.71; R 3.76
D14: S 1.94; G 2.52; T 2.02; Q 2.27
D13: H 2.23; R 1.88; F 1.63; S 2.28; Y 2.11; C 1.56; P 2.19; K 2.25; V 1.78
A9: R 2.17; Y 2.04; F 1.9; D 3.6; I 2.12; C 2.36; T 2.36; K 2.22; G 2.41
Y20: C 2.26; M 2.77; R 3.13; I 2.84; E 3.15
P3: K 2.64; D 3.46; I 2
A15: N 2.61; F 2.1; W 2.56; G 2.87
A7: K 2.52; P 2.5; V 2.23; Y 2.06
T16: P 2.54; M 2.31; D 2.91; E 2.79; F 2.32; C 2.27; S 2.42; I 2.18
L19: S 2.87; D 3.34; A 2.87
L22: D 3.03; M 2.49; E 3.34; H 3.09; N 2.84
S4: M 3.45; V 2.56; K 3.33
R18: T 2.77; C 2.29; D 3.35; N 2.54; L 2.45
D21: T 1.99; Q 2.3; F 1.5; I 2.41; P 2.52; M 2.23; S 1.89; R 1.99; Y 1.61
S10: Y 2.4; F 2.03; V 2.18
G5: S 3.09; K 2.89; V 3.17; T 3.56; H 2.81
S12: G 1.74; F 2.41; I 2.24; L 2.16; T 2.79; P 2.17
Y2: D 4.29; W 1.75; R 3.66; S 2.18; P 3.16
Y1: V 3.72; C 3.3; L 3.84
C17: W 2.48; A 2.42; S 2.85; P 2.62; I 2.89; V 2.85; K 2.69
G11: K 1.94; N 2.64; C 2.09; Y 1.98; Q 2.14
D6: C 2.03; T 2.13; L 2.06

Variants of: B2
Assay: as above
Settings: c terminus: a fixed tail appended

Protein stability index, by site and new letter:
H24: E 4.04; Y 2.32; G 3.55; A 2.85; S 3.44; D 4.13; Q 3.39; W 2.98; C 2.3; R 2.78; I 2.35; V 2.38; L 2.22; N 3.5; F 2.58; P 2.79; T 3.11; K 3.21; M 2.92
E23: S 2.36; R 1.72; I 2.54; H 2.21; Q 2.55; M 1.9; N 1.96; P 1.96; K 2.33; T 2.2; L 1.93; C 1.64; F 2.51; V 2.07; G 3.21; W 3.37; A 2.64; D 2.86; Y 1.26
D22: W 3.21; Y 1.5; V 2.3

Reference: the supplement of paper PMC10567573
